94 variants from the supplement of paper PMC10567573 can be followed below.

The labels stand for the following.
B1: TRIM63 (parent)
chain: QRITQEQEKKLSFIEALIQQYQEQ
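Also: lentivirally expressed fusions sorted by FACS into six bins by GFP to DsRed ratio, PSI derived from sequencing read proportions per bin multiplied by bin number.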

In this data set the parent is B1. Kind of data set: protein stability index of a GFP-peptide fusion (GPS, HEK-293T) (PSI 1-6); higher = more stable. The note with it: c terminus: a fixed tail appended.
With QRITQEQEKKLSFIEALIQQFQEQ [Y21F], the protein stability index was determined as 1.76. Next, QRITQEQEKKLSFIEALIQQHQEQ [Y21H]: 2.55; QRITQEQEKKLSFIEALIQQWQEQ [Y21W]: 1.8. Next, QRITQEQEKKLSFIEALIQQLQEQ [Y21L]: 1.6.

Turning to QRITQEQEKKLSFIEALIQQTQEQ [Y21T], the protein stability index was 3.23. The result for QRITQEQEKKLSFIEALIQQPQEQ [Y21P] reads 4.33.

For the variant QRITQEQEKKLSFIEALIQQKQEQ [Y21K], the protein stability index worked out at 3.8.

Consider QRITQEQEKKLSFIEALIQQGQEQ [Y21G], for which the protein stability index worked out at 3.61. As to QRITQEQEKKLSFIEALIQQSQEQ [Y21S], the protein stability index turned out to be 3.19. On to QRITQEQEKKLSFIEALIQQCQEQ [Y21C], for which the protein stability index is 1.75. On to QRITQEQEKKLSFIEALIQQIQEQ [Y21I], for which the protein stability index turned out to be 1.84. Next, QRITQEQEKKLSFIEALIQQMQEQ [Y21M]: 1.98; QRITQEQEKKLSFIEALIQQNQEQ [Y21N]: 4.41; QRITQEQEKKLSFIEALIQQAQEQ [Y21A]: 3.38.

In the case of QRITQEQEKKLSFIEALIQQRQEQ [Y21R], the protein stability index was 3.91.

In the case of QRITQEQEKKLSFIEALIQQQQEQ [Y21Q], the protein stability index was 2.75. Next, QRITQEQEKKLSFIEALIQQEQEQ [Y21E]: 2.11. The result for QRITQEQEKKLSFIEALIQQVQEQ [Y21V] reads 2.32; that for QRITQEQEKKLPFIEALIQQYQEQ [S12P], 3.91. Next, QRITQEQEKKLQFIEALIQQYQEQ [S12Q]: 2.62; QRITQEQEKKLVFIEALIQQYQEQ [S12V]: 1.81; QRITQEQEKKLNFIEALIQQYQEQ [S12N]: 2.74. Regarding QRITQEQEKKLTFIEALIQQYQEQ [S12T], the protein stability index was determined as 3.23. Next, QRITQEQEKKLWFIEALIQQYQEQ [S12W]: 1.57. The result for QRITQEQEKKLYFIEALIQQYQEQ [S12Y] reads 1.85. With QRITQEQEKKLSFIEALIQQYQFQ [E23F], the protein stability index turned out to be 2.01. The result for QRITQEQEKKLSFIEALIQQYQGQ [E23G] reads 2.57. Turning to QRITQEQEKKLSFIEALIQQYQDQ [E23D], the protein stability index was found to be 2.62.

For QRITQEQEKKLSFIEALIQQYQCQ [E23C], the protein stability index worked out at 2.37. As for QRITQEQEKKLSFIEALIQQYQAQ [E23A], the protein stability index was 1.96. Next, QRITQEQEKKLSFIEDLIQQYQEQ [A16D]: 3.16; QRITQEQEKKLSFIESLIQQYQEQ [A16S]: 2.45. Next, QRITQEQEKKLSFIEPLIQQYQEQ [A16P]: 4.08; QRITQEQEKKLSFIECLIQQYQEQ [A16C]: 2.46. As for QRITQEQEKKLSFIEGLIQQYQEQ [A16G], the protein stability index came out at 3.33. Next, QRITQEQEKKLSFIEKLIQQYQEQ [A16K]: 2.25. The result for QRITQEQEKKLSFIERLIQQYQEQ [A16R] reads 2.63; that for QRITQEQEKKLSFIEMLIQQYQEQ [A16M], 3.77; that for QRITQEQEKKLSFIEELIQQYQEQ [A16E], 2.95. For QRITQEQEKKLSFIELLIQQYQEQ [A16L], the protein stability index came to 1.7. As to QRITQEQEKKLSFIEFLIQQYQEQ [A16F], the protein stability index turned out to be 2.57. The result for QRITQEQEKKLSFIENLIQQYQEQ [A16N] reads 2.69; that for QRITQEQEKKLSFIEYLIQQYQEQ [A16Y], 2.31. Next, QRITQEQEKKLSFIETLIQQYQEQ [A16T]: 2.15; QRITQEQEKKLSFIEILIQQYQEQ [A16I]: 3.03; QRITQEQEKKLSFIEHLIQQYQEQ [A16H]: 2.45. Next, QRITQEQEKKLSFIEWLIQQYQEQ [A16W]: 2.37. As for QRITQEQEKKLSFIEQLIQQYQEQ [A16Q], the protein stability index stood at 1.83. Next, QRITQEQEKKLSFIEVLIQQYQEQ [A16V]: 1.76. Next, QRITQEQEKKLSFIEAVIQQYQEQ [L17V]: 2.2; QRITQEQEKKLSFIEAEIQQYQEQ [L17E]: 4.81; QRITQEQEKKLSFIEAFIQQYQEQ [L17F]: 2.62. The result for QRITQEQEKKLSFIEAHIQQYQEQ [L17H] reads 3.06; that for QRITQEQEKKLSFIEAPIQQYQEQ [L17P], 4.63.

On to QRITQEQEKKLSFIEADIQQYQEQ [L17D], for which the protein stability index was determined as 4.58. The result for QRITQEQEKKLSFIEAMIQQYQEQ [L17M] reads 2.93. The result for QRITQEQEKKLSFIEASIQQYQEQ [L17S] reads 4.13; that for QRITQEQEKKLSFIEACIQQYQEQ [L17C], 2.23; that for QRITQEQEKKLSFIEARIQQYQEQ [L17R], 4.34. The result for QRITQEQEKKLSFIEATIQQYQEQ [L17T] reads 3.31; that for QRITQEQEKKLSFIEAKIQQYQEQ [L17K], 3.75. As to QRITQEQEKKLSFIEAYIQQYQEQ [L17Y], the protein stability index amounted to 1.92.

As for QRITQEQEKKLSFIEANIQQYQEQ [L17N], the protein stability index was determined as 4.73. Turning to QRITQEQEKKLSFIEAGIQQYQEQ [L17G], the protein stability index was determined as 4.54.

Take QRITQEQEKKLSFIEAQIQQYQEQ [L17Q]: the protein stability index was 4.03. Next, QRITQEQEKKLSFIEAIIQQYQEQ [L17I]: 2.28.

Regarding QRITQEQEKKLSFIEAAIQQYQEQ [L17A], the protein stability index was determined as 3.42. The result for QRITQEQEKKLSGIEALIQQYQEQ [F13G] reads 4.6.

Take QRITQEQEKKLSNIEALIQQYQEQ [F13N]: the protein stability index was 4.66. Next, QRITQEQEKKLSSIEALIQQYQEQ [F13S]: 4.52; QRITQEQEKKLSLIEALIQQYQEQ [F13L]: 2.72. With QRITQEQEKKLSDIEALIQQYQEQ [F13D], the protein stability index was 4.83. Next, QRITQEQEKKLSKIEALIQQYQEQ [F13K]: 3.59; QRITQEQEKKLSQIEALIQQYQEQ [F13Q]: 4.33.

Regarding QRITQEQEKKLSPIEALIQQYQEQ [F13P], the protein stability index stood at 4.68.

For the variant QRITQEQEKKLSAIEALIQQYQEQ [F13A], the protein stability index was 4.47. The result for QRITQEQEKKLSIIEALIQQYQEQ [F13I] reads 2.62. QRITQEQEKKLSCIEALIQQYQEQ [F13C]: the protein stability index amounted to 3.56.

Consider QRITQEQEKKLSYIEALIQQYQEQ [F13Y], for which the protein stability index stood at 2.62. Next, QRITQEQEKKLSHIEALIQQYQEQ [F13H]: 4.14. With QRITQEQEKKLSEIEALIQQYQEQ [F13E], the protein stability index was 4.78. Next, QRITQEQEKKLSWIEALIQQYQEQ [F13W]: 1.68; QRITQEQEKKLSTIEALIQQYQEQ [F13T]: 4.78. The result for QRITQEQEKKLSMIEALIQQYQEQ [F13M] reads 3.25; that for QRITQEQEKKLSRIEALIQQYQEQ [F13R], 3.91. The result for QRITQEQEKKLSVIEALIQQYQEQ [F13V] reads 3.93; that for QRITQEQEKKLSFGEALIQQYQEQ [I14G], 4.31; that for QRITQEQEKKLSFLEALIQQYQEQ [I14L], 2.23. As to QRITQEQEKKLSFEEALIQQYQEQ [I14E], the protein stability index is 2.77.

As to QRITQEQEKKLSFPEALIQQYQEQ [I14P], the protein stability index is 4.55. Next, QRITQEQEKKLSFQEALIQQYQEQ [I14Q]: 3.22. Regarding QRITQEQEKKLSFREALIQQYQEQ [I14R], the protein stability index turned out to be 3.15.

For QRITQEQEKKLSFSEALIQQYQEQ [I14S], the protein stability index was 3.48. Next, QRITQEQEKKLSFYEALIQQYQEQ [I14Y]: 2.87.
